The target of the assay is Sushi domain of IL15Rα (aa1-66) fused to the CH2-CH3 of human IgG1 Fc. Kind of assay: SEC. (Size exclusion chromatography separates by hydrodynamic size, large species first.)

Chain of Sushi domain of IL15Rα (aa1-66) fused to the CH2-CH3 of human IgG1 Fc (Q13261 1-66): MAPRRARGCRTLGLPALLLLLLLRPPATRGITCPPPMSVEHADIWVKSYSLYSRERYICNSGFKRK

One may read the stoichiometry N as the number of molecules, sites or subunits per partner or assembly. Turning to “Sushi domain of IL15Rα (aa1-66) fused to the CH2-CH3 of human IgG1 Fc (Fc fusion)”, the stoichiometry N worked out at 2.

The values are drawn from paper PMC7954438.
